Experimental findings from article doi:10.1101/2024.05.05.592606 (bioRxiv, 2024) are described below.

* marks the point of attachment. 5FAM = O=C1OC2(c3ccc(O)cc3Oc3cc(O)ccc32)c2ccc(C(=O)*)cc21

B1: DAX1-3 FAM-labeled coregulator peptide (peptide)
peptide: 5FAM-QGSILYSLLMSAKQ-OH
SMILES: CC[C@H](C)[C@H](NC(=O)[C@H](CO)NC(=O)CNC(=O)[C@H](CCC(N)=O)NC(=O)c1ccc2c(c1)C(=O)OC21c2ccc(O)cc2Oc2cc(O)ccc21)C(=O)N[C@@H](CC(C)C)C(=O)N[C@@H](Cc1ccc(O)cc1)C(=O)N[C@@H](CO)C(=O)N[C@@H](CC(C)C)C(=O)N[C@@H](CC(C)C)C(=O)N[C@@H](CCSC)C(=O)N[C@@H](CO)C(=O)N[C@@H](C)C(=O)N[C@@H](CCCCN)C(=O)N[C@@H](CCC(N)=O)C(=O)O
B2: SHP-1 FAM-labeled coregulator peptide (peptide)
peptide: 5FAM-RPTILYALLSPSPR-OH
SMILES: CC[C@H](C)[C@H](NC(=O)[C@@H](NC(=O)[C@@H]1CCCN1C(=O)[C@H](CCCNC(=N)N)NC(=O)c1ccc2c(c1)C(=O)OC21c2ccc(O)cc2Oc2cc(O)ccc21)[C@@H](C)O)C(=O)N[C@@H](CC(C)C)C(=O)N[C@@H](Cc1ccc(O)cc1)C(=O)N[C@@H](C)C(=O)N[C@@H](CC(C)C)C(=O)N[C@@H](CC(C)C)C(=O)N[C@@H](CO)C(=O)N1CCC[C@H]1C(=O)N[C@@H](CO)C(=O)N1CCC[C@H]1C(=O)N[C@@H](CCCNC(=N)N)C(=O)O
B3: PGC1α FAM-labeled coregulator peptide (peptide)
peptide: 5FAM-EEPSLLKKLLLAPA-OH
SMILES: CC(C)C[C@H](NC(=O)[C@H](CC(C)C)NC(=O)[C@H](CC(C)C)NC(=O)[C@H](CCCCN)NC(=O)[C@H](CCCCN)NC(=O)[C@H](CC(C)C)NC(=O)[C@H](CC(C)C)NC(=O)[C@H](CO)NC(=O)[C@@H]1CCCN1C(=O)[C@H](CCC(=O)O)NC(=O)[C@H](CCC(=O)O)NC(=O)c1ccc2c(c1)C(=O)OC21c2ccc(O)cc2Oc2cc(O)ccc21)C(=O)N[C@@H](C)C(=O)N1CCC[C@H]1C(=O)N[C@@H](C)C(=O)O

In the assay the target is human LRH-1 (NR5A2) ligand-binding domain (LBD) (human, UniProt O00482-1 266-541). Put plainly: fluorescence polarisation.
Chain of human LRH-1 (NR5A2) ligand-binding domain (LBD) (O00482 266-541): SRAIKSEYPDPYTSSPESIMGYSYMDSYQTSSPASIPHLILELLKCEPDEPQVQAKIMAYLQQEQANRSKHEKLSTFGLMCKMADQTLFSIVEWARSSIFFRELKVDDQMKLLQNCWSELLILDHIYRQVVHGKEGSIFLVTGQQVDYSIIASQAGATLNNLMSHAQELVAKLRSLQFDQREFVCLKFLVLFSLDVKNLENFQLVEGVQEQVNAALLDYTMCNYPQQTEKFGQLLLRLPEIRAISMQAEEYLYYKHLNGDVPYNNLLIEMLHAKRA
Turning to B1, the binding result is “binds”. Under B2 stands “binds”.

As to B3, the binding result is “binds”.
